Columns and labels:
[1] = biological target: T1, BCMA on tumor cells (NCI-H929, U266, MM.1S, NALM6-BCMA) (Homo sapiens (Human), UniProt Q02223 1-184); experiment: flow cytometry of NALM6-BCMA tumor cells flushed from femurs of mice after I.V. Adapter administration
T1 construct: also called BCMA+ tumor target
T1 sequence: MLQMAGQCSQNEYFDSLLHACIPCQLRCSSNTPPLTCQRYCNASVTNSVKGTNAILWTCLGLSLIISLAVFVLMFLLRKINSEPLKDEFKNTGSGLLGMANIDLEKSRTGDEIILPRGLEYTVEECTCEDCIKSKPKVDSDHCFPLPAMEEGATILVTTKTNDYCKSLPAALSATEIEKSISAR

CD123-Fc = biological target: T2, CD123-Fc (Homo sapiens (Human), UniProt P26951 19-305); experiment: flow cytometry, Adapter held on af03-CAR Jurkat cells, CD123-Fc detected with Anti-Fc A488
T2 construct: not shown: Fc part not described
T2 sequence: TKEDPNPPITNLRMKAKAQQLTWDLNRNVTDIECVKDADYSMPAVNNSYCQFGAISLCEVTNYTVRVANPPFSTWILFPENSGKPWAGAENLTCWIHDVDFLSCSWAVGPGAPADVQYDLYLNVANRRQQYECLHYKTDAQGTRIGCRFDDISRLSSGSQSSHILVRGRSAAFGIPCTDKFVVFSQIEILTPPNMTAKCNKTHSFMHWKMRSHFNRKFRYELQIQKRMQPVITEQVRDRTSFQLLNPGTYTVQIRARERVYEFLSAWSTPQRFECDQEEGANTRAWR
Experimental: (§1) 10⁵ Jurkat NFAT-Luciferase transduced with an AFP (p26)-binding CAR (af03) were incubated with a total of 0.5 μg of Adapter proteins at various ratios of the BCMA- to CD123-specific Adapters (4° C. for 20 minutes), washed, and then incubated with CD123-Fc and biotinylated BCMA (0.5 μg of each) (4° C. for 20 minutes), washed, then binding detected with Anti-Fc A488 and Streptavidin-PE. FIG. 8A presents a flow cytometric analysis of CD123-binding and BCMA-binding to their respective target proteins, FIG. 8B provides a comparison of mean fluorescence intensity (MFI) of A488 MFI (CD123-binding, left axis) and PE MFI (BCMA-binding, right axis) flow cytometric data presented in FIG. 8A.
(§2) 10⁵ Jurkat NFAT-Luciferase transduced with a p26-binding CAR (af03, SEQ ID NO: 1092) were incubated with a total of […] of Adapters (SEQ ID NO: 1084, SEQ ID NO: 1085) at the indicated ratios at 4° C. for 20 minutes, washed, and then incubated with CD123-Fc and biotinylated BCMA (0.5 μg of each/(4° C. for 20 minutes), washed, then binding detected with Anti-Fc A488 and Streptavidin-PE. FIG. 8A presents a flow cytometric analysis of CD123-binding and BCMA-binding to their respective target proteins, FIG. 8B provides a comparison of mean fluorescence intensity (MFI) of A488 MFI (CD123-binding, left axis) and PE MFI (BCMA-binding, right axis) flow cytometric data presented in FIG. 8A.

biotinylated BCMA = biological target: T3, biotinylated BCMA (Homo sapiens (Human), UniProt Q02223 1-54, biotinylated); experiment: flow cytometry, Adapter held on af03-CAR Jurkat cells, biotinylated BCMA detected with Streptavidin-PE
T3 sequence: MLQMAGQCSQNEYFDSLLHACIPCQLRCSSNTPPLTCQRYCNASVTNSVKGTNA
Experimental: as §1, §2

BCMA-binding CAR (bc40) = biological target: T4, BCMA-binding CAR (bc40); experiment: flow cytometry, CAR-transduced Jurkat cells incubated with 0.5 µg Adapter, stained with anti-HIS PE
T4 construct: D domain CAR on Jurkat reporter cells or T cells; The entry includes signal peptide and FLAG tag; also called BCMA-specific D domain CAR; CTsp-Flag-GSlinker-bc40-GSlinker-CD8H-TM-41BB-CD3ζ
T4 sequence (chain, as listed by the source): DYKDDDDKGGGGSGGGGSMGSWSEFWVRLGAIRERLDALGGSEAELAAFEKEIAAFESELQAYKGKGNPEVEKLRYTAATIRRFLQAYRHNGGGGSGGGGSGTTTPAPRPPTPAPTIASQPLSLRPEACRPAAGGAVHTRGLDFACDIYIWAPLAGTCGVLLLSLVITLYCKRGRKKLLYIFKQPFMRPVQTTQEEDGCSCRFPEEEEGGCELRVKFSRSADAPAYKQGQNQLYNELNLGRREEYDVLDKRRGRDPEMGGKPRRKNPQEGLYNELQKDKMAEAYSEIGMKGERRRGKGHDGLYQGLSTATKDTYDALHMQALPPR

B1: BCMA specific Adapter (bc98-p26-bc98) (designed binder)
chain: MGSWSEFWARLGAIRERLDALGGSEAELAAFEKEIAAFESELQAYKGKGNPEVEKLRYTAGTIKRFLQAYRHNGGGGDGGGGSGGGGSGLEKCFQTENPLECQDKGEEELQKYIQESQALAKRSCGLFQKLGEYYLQNAFLVAYTKKAPQLTSSELMAITRKMAATAATCCQLSEDKLLACGEGAADIIIGHLCIRHEMTPVNPGVGQCCTSSYANRRPCFSSLVVDETYVPPAFSDDKFIFHKDLCQAQGVALQTMKQEFLINLVKQKPQITEEQLEAVIADFSGLLEKCCQGQEQEVCFAEEGQKLISKTRAALGVGGGGSGGGGSGGGGSMGSWSEFWARLGAIRERLDALGGSEAELAAFEKEIAAFESELQAYKGKGNPEVEKLRYTAGTIKRFLQAYRHN
notes: also called SPRX-BCMA; sparX-BCMA
Does B1 bind [1]?
Result: binds

B2: cg06-p26 Adapter (designed binder)
chain: DEHHHHHHHHHHKLENLYFQGGGGGSMGSWDEFGRRLYAIEWRLYALGGSEAELAAFEKEIAAFESELQAYKGKGNPEVEKLREIAAVIRSNLQAYRHNGGGGSGGGGSGGGGSLEKCFQTENPLECQDKGEEELQKYIQESQALAKRSCGLFQKLGEYYLQNAFLVAYTKKAPQLTSSELMAITRKMAATAATCCQLSEDKLLACGEGAADIIIGHLCIRHEMTPVNPGVGQCCTSSYANRRPCFSSLVVDETYVPPAFSDDKFIFHKDLCQAQGVALQTMKQEFLINLVKQKPQITEEQLEAVIADFSGLLEKCCQGQEQEVCFAEEGQKLISKTRAALGV
notes: Soluble fusion: HIS tag, cg06 D domain, linker, p26; also called cg06-AFP (p26) Adapter; CD123 (cg06)-AFP (p26) Adapter
Does B2 bind (CD123-Fc)?
Result: binds

B3: bc40-p26 Adapter (designed binder)
chain: DEHHHHHHHHHHKLENLYFQGGGGGSMGSWSEFWVRLGAIRERLDALGGSEAELAAFEKEIAAFESELQAYKGKGNPEVEKLRYTAATIRRFLQAYRHNGGGGSGGGGSGGGGSLEKCFQTENPLECQDKGEEELQKYIQESQALAKRSCGLFQKLGEYYLQNAFLVAYTKKAPQLTSSELMAITRKMAATAATCCQLSEDKLLACGEGAADIIIGHLCIRHEMTPVNPGVGQCCTSSYANRRPCFSSLVVDETYVPPAFSDDKFIFHKDLCQAQGVALQTMKQEFLINLVKQKPQITEEQLEAVIADFSGLLEKCCQGQEQEVCFAEEGQKLISKTRAALGV
notes: Soluble fusion: HIS tag, bc40 D domain, linker, full-length p26; also called bc40-AFP (p26) Adapter; HIS tag-BCMA(bc40)-p26
Does B3 bind (biotinylated BCMA)?
Result: binds

B4: α3D-BCMA Adapter (designed binder)
chain: DEGGGGSMGSWAEFKQRLAAIKTRLQALGGSEAELAAFEKEIAAFESELQAYKGKGNPEVEALRKEAAAIRDELQAYRHNGGGGSGGGGSGGGGSGMLQMAGQCSQNEYFDSLLHACIPCQLRCSSNTPPLTCQRYCNASVTNSVKGTNAGGGGSGGGGSGGGGSHHHHHHHHHH
notes: Soluble fusion: targetless α3D domain, linker, BCMA extracellular domain, HIS tag; also called none(α3D)-BCMA-HIS tag
Does B4 bind (BCMA-binding CAR (bc40))?
Result: binds

B5: Cg06-BCMA Adapter (designed binder)
chain: DEMGSWDEFGRRLYAIEWRLYALGGSEAELAAFEKEIAAFESELQAYKGKGNPEVEKLREIAAVIRSNLQAYRHNGGGGSGGGGSGGGGSGMLQMAGQCSQNEYFDSLLHACIPCQLRCSSNTPPLTCQRYCNASVTNSVKGTNAGGGGSGGGGSGGGGSHHHHHHHHHH
notes: Soluble fusion: cg06 D domain, linker, BCMA extracellular domain, linker, HIS tag; also called CD123(cg06)-BCMS-HIS tag
Does B5 bind (BCMA-binding CAR (bc40))?
Result: binds

Reference: US20240307439A1 (ARCELLX, published 2024)
